Assay results from the DeepSol protein solubility set.

Test: soluble on expression in E. coli; label from the status in PepcDB or PDB records

Soluble on expression in E. coli, not soluble:
MGSDKIHHHHHHMPEPRRSTIDAGEVERFSALAAEWWNPNGKFRPLHKFNPVRLSYIRDQIAARFGRDPRAARPFEGLRILDIGCGGGLLCEPMARLGAEVVGADASETNIEVAKLHAAEGNVIVDYRATTAEDLADAGETFDVILNMEVVEHVADIDLFVAKCGQMVRPGGIMFVATINRTLKALGLAIIGAEYVLRWLPRGTHQFGKLVRPEELEKALGGASLTIIDRTGVTYNPLADRWARSKDMDVNYMVLAEKGSV
MGSDKIHHHHHHMPFANPQEAIDFLDKHPQVQHVEVFIIDPNGIPRGKLLHRQEVLSMYRHGRPLPSTILGLTVQGDDVEDTGLVWEVGDADCLAFPIEGGLLMQPWRAQPTAQVHLTMHPEAGMPAAVADPRLVLSKVIDSLQADGFYPVMAAELEFFLLDQRFDANGRPQPAMQSDGHRPHQTQVYGILELERLQPFLDDLYHACEVQGIPARTAISEYAPGQVEITLEHRFDALQAMDEAVRYKRLVKGVAAKHGMQACFMAKPFGELAGSGMHMHVSLADADGNNRFASDNPEGTPELTQSIAGMMATLEDAQLLFCPNANSFRRFQSASYAPIAKTWGVNNRTVSFRVPGGPAPSRHVEHRICGADANPYLAAAAILAACHHGIRNQLSPGQAIVGNGYEGKHQTLPTDWLSALTNFERSEWMKSVLGEDFHRIYGRIKRAEYQEFMAEVGQQDWHWYLTHA
MGSDKIHHHHHHMPFIIDYQCLCAINSEIKMFSGEQLGQAISEAIKRKNVSQKEVADHFGVKQPSVSGWIKNGRIDKKHLDKLIDYFSDVVTPSHFGIETFRVLKSNEQSSIRFPRLNAEATCGAGTINDHYIEVVDYVTVAAAWAREKLGGNLNKIQVITARGDSMEPTIENGDVMFVDTAVEAFDGDGLYLLWYIDGLKAKRLQSTVGGGLMIISDNSSYRTETVRGEDLNAVRIIGRIRGAWRLSQF
MGSDKIHHHHHHMPHKASVFIVEFKFELESCPLGVVIPLEESKNKLASVKPLVDLTRPDMERVNQLILSRAGSDVQMIPEVANHLISSGGKRLRPMLTLASASMFGYEGDNHIKLATSVEFMHTATLLHDDVVDESDLRRGKSTARTIWGNQASVLVGDFLLGQAFRMMVDVGSLDALDVLSTAASVIAEGEVLQLSVAKNMETTEDDYLQVIRAKTAALFAAAAEVGPIVAKTDKASRSALKSYGMNLGLAFQLVDDVLDYGGKSADLGKNTGDDFREGKITLPVILSYRRGTQDERAFWRNAIEKGESSDENLEKALGLITKYNGLGDTIGRATHYGTIARDALAPLPQSPWKNALLEVIDFCIERLN
MGSDKIHHHHHHMPIHLIWGDDAAARDHAIETLIGDVVDQAWSSINLSRLDGADAGQASQALAEARTPPFGSGGRLVLLQRSPFCNACPSELANRFEDVLDLIPETSHLVLCNPNKPDGRLRTTKALQKLVKLKQASEKSFLLPAIWDGAGQQELVERTARDLGLQLEPEATAALVEAIGNDSTRLTAELQKLALHADIRQESATENQSPTLIKAENVAALIEGMATNALQVGDSLLAGHAGEAIARLDALLDAGEPALRIVATLTGQIRGWLWVSLLEQQGERDVNVIAKAAGIGNPKRIYVMRKQLQGRPPQRFLTLLSRLLEVEAALKRGAIPTDAFRDGLLSTP
MGSDKIHHHHHHMPKHLYSLLVVNINMFEKEKEILAKRIAGEIVLSPDPGKTMRKWREIFGISQTELADYLGVSSSVISDYEGGRRKSPGASTIRKFVEALIEIDEKRGGNVIKAFSRTFSSEIPTSAILDIREFDIPVTVKDIVDAVKGEIVANPDLIDRKIYGYTVVDSIQAILEMSAEEFLKLYGWTTERALVFTKVTTGRSPMIAVRVQGLKPAMVVLHGVKRLDELAVKIAEKERVPLVVSKAENETELITGLRRLVTSI
MGSDKIHHHHHHMPKQTFFNLKDEKRQRIIDAAEREFSQCPLYESSINNIIKDAKIPRGSFYQYFDDLSDLYGYYFSLILEDIQENLIDSVQEADGDIFSAVKKYAGEYMKEIISGNHRDFYRNFFLGANISKRSKDGKHPGFDVYHSDRMKELRVNLKKEVNWKLLKVTNEKDQNMIQQLIMMIFFHSFANYFVHSNNTDSDPAEVQKEIERNLNWLEFGARRTEDK
MGSDKIHHHHHHMPKRPVRKPGVFARLEDLYTRMETAYNATAAAAGLTCTGCDDNCCRTHFRHHTRIEWAYLWKGMLSLSPERREAYLERAKDVVAQCDAALAAGVVPRVMCPLNDEGRCGLYKYRLMICRMHGTRNILRLPDGRTQVFRGCHRFDNCTAQFADADRPSLDRTPLYTELAKLEMEHLGPTAARQQRVDLTLAEMLVYGPPKP
MGSDKIHHHHHHMPLKSSYSDQLKKTDQSLIALLSDRISLLASEQPSLDEQLASVAPLLAQAGIPESVWAGVVNSCHASLTPKSAINHASPRQVTIIGGRGRMGRLFQEQLSLVGHNVSILEHEDWEYAEQLLSQAELVLVSVPIEHTVDVIKRAAKYLASNTALCDITSIKTQPTQAMLEHHCGPVMGLHPMFGPNIKSFLGQKVVVCPGRNDDSFQWLLDFLKSKGGELIVCTPEEHDRMMVIIQATQHFCRFSLGVFLAQARVEIEQSLTMSTPNYRQEIDIVKRLFAQNPNLCVDIMLATEERCNAISFLANTYSRLARLVARKDREALIKEFENTQSFFEGKINSFLQPLNTTALKRDFKPQNIGI
MGSDKIHHHHHHMPLRGGVTCRVPSGMWMVPPHCGVWVPGGMLHSNVATANARLFFLFIEPGAADLPNRCCTLSLSPLVRELIIELADQSEVATADSELMTTLLLSALSRMPVEHLHLPLTDEPRLARIASELADDPSDRSTMAQWARRVAMSENSLARLVQHQTGLTFGRWRQQLQLIIAIRSLASGATVQQVSGDLGYESVSAFITMFKKALGTSPSRYLRNFDR
MGSDKIHHHHHHMPNMGIEKLYVSQQLTDSAAGMTFTKPQYYKYVQELSLKPKVNSASAYAENRKVDQDTQFDSCDVSINLFQMTSSQRAFMLGQSLAGGGGAIGALNDKAPWITLLYKAPIKVDDTIYYRYGVIYKTQFQPPDDDYKTTEGKPDFSQVPKISGSAQPTEWSFKDGKLEKHPWEWHVDTCDPNCPENIDDTWFNSVSIPSLVTYGSLSLSASSPKDGATGISLDTKPSLTFNNPIMNATSILLYNVSDGATVNTTTSSDSSGKIITITPSTNLVANKNYVLVVQDVTDLYGQTLDTQLIRFTTATAAS
MGSDKIHHHHHHMPNQPLIFDTAIAKDKPENIRHPHNACPFCDPGQLTDIIAQDADRIWLLNKFPTLQATWQTIVIEAARHDGDIATYSSAQNRAVFTFALKHWQATIASGRFKSVLCYKNFGPHSGGSLRHPHMQIVGLMAADGYANVTAANLTGYSVLAVDQVQVTVSDRPIMGFVEINVAAPATAIAPLADAVQQVVQYTLNTYFHGQCDSYNLFFYPRDDQIVAKVVPLFNVSPYYIGYRLAQADTPKRMRAIAEEIRQQFERSNLAHSN
MGSDKIHHHHHHMPNTFEHLQAAHCENGVTTNLLRNVGVSKMTEPLAFGIGSGLFFIYIPLMKINGGPAIAYRTMPGLIFKRTAQSLGIDVVRKTFRSTIKAQEFLDACIKAGQPVGCQVGVYFLSYFPKEYRFHFNAHNLIVYGKEGDNYLVSDPVMETTNILSTYELERVRFAKGALAPKGQIYFPKPNHEPVSDDKIRKAIVTGVKRNIRDMLHIPGPIAGVSGIKYTGNKIKNWRDKLGIEKAGLYLAQLVRMQEEIGTGGGGFRFIYGAFLQQAHAFHNDDQLLEISKSFTQSGDLWRSAAIQAAGIYKGRITSQADFNVMGDYLLEISELEKKAFKELTKIKWQK
MGSDKIHHHHHHMPPFILNSQNVFDYLSSLNLCTLEEGESSKIELKPAKNFNLLITFPEGRKLLVKQERHNLEGKTTGEFVLEWRIHDFVSRFPELNHIRSYLSEAIYFNWENSIIIFNYLDNYRDLMDFYVKENLNLFPTQLANAVGTTLALIHRTSFNCEEYRDFFQNPGESKSNPKTPHLNRGLDRLTPEIFGKVPADGLRFFALYQRYDSLGQAIAQLINSFTPCCLTHNDLKLNNILVSLDWEDIGDENIVRLIDWERGSWGDPANDLGTLIASYLQIWLYSMVTGKSIAIEESLRLAATPLYVLQPSLRELVIAYLTHFPEILEHHPDFLQRVMQFCGLALITAIQAQLQYEKTFGNVGICMLQVAKSLLCRPEASVQTIFGVQLSDLSPVSLSQV
MGSDKIHHHHHHMPRLLLVTNDFPPTVGGIQSYLRDFVALLPPEDVVVFASTQDPVAAREFDKSVPYKVVRYSSKLMLPTPQVKKLMVDLIKSEGVSTVWFGAAAPLAVMAPAARAAGAIQIISTTHGHEVGWSMVPGARSVLRFIGQHSDVVTYISDYTLRRFRRAFGEHPKFVHLPSGVDVERFYPVDEKQKFELRDQLGWAEKDKVIVCTSRLVPRKGQDTLIKAFPEIVQRCSEARLVIVGEGRIEGKLRRLAARDQKASSRISFEGRVSEEKMGMMLRGADVFAMPCRTRGGGLDVEGLGIVFLEAQACGVPVIAGDSGGAPETVTPASGVVVNGRDSSSVAHVIVDLVQQPAALMSMGHAGRQHVVDHWTWEIMGARLKSLIL
MGSDKIHHHHHHMPRPFRLSCALLHEPVSSNLMDLKYGDTSFSLAIPPERLMGVIRPSVPAPDSDPAAIISEALDRCADAIATFRTGERVVIVTSDITRYTGSEIYLPLLVERLAAAGVRERDIEIVVALGIHRKQTEHEHQRITGPLYGRIRITDHECDNPGKLVLIGRTSTGVDVVVNRTVAEADRVILTGTIGFHYFAGFGGGRKSILPGVAGRASCMASHYAVLNPGEGTGRNPLATTGNLEGNPVHQTMVEACAMVNPEFILNTVLSPAKRIIAAFAGHWREAHEEGCRFYADRFSFPLKKPADLVVVSCGGYPKDINVIQSHKSMEYGCQALRRGGVMVLLAQCRDGYGNATFFDWFRFRELDAFEARLRSHYEINGQTAFSLLQKARTFSIILVSDLPPEEVRTMGMTPARTLDEAMTAAASLLPSDYTAYVVPEGGTVLPIMM
MGSDKIHHHHHHMPRTIRIYRPTELPADEALPVIYMHDGQNVFSGETASFGKGWEVHHALHTVQLHAMIVAIDSPDDGMDRYDEYAPWTDEALLMRTAYPSHRKTIGGNGKQYMHWIVHELKPYIDAQYATIPTDTTMIGSSMGGVISLYGLFAYPEVFTRVAALSTAGWANFSSLLEFIERSPGLSEDHRCYMDVGTKEVSGPMTENDYLHTNEVLAKAVQKKVQQAAYEIIPGAVHHETEWAKRMPDILRFLFSS
MGSDKIHHHHHHMPSDAINEGQAQDAPRMRAAEYVRMSTEHQQYSTENQADKIREYAVRRGIDIIKTYADEGKSGLRIDGRQALQSLIRDVEAGTADFDIILVYDVSRWGRFQDADESAYYEYICRRAGIQVAYCAEQFENDGSPVSTIVKGVKRAMAGEYSRELSAKVFAGQCRLIELGYRQGGPAGYGLRRTLVDVKGEVKAELSRGEHKSLQTDRVILRPGPDEEVTIVNQIYRWFIDDGMYESEIAGRLNGMRVRTDLDREWTRATVREVLTNEKYVGHNVYNRVSFKLKKLRVVNPPEMWIRRDAAFPGVVPPDVFYTAQGIIRARAHRYTNEELIERLRGLYRNRGFLSGVVINETEDMPCAAVYAHRFGSLVRAYQLVGFTPDRDYRYVEINRALRRMHPDVLRQIEGQIAGLGGIVQRDAATDVLIVNGEFTVSIVLARCHEAAGMPNRWKIRLDSSLAPDISVAARLESGNQAVRDYYLLPKVDIGSSNISLAERNAAEFESYRFETLDYLYGMAARSRVRLAA
MGSDKIHHHHHHMPSVFQLQALCAAVEKPSLRQAAEALCKTQPALTHALKQLESQLGLPLFNRDGYRLVLTGSGERIYQLALKTLESHAELEQLAQHLARGDEDRVVLTVEASFDLTPILSALESVQAEFSQTEIVIQQEYLTGAVERVQQGHANLAITPLAPALSPGTRLDTQPLSQGQMLNVAAPRLLARYPSLCSILELRKEYQILVQDSGSGTLGLKLGVQSAQRHWYVNSFATKLSLIEQGMGWGRLPEWMLTEALAAGRLQLLELADFPARQRFDYHLVRRSASVPGPVATRLWQRLGGGAL
